Kd data for 8 molecules are collected here from patent US20190256584A1 (University of California, published 2019).

In general, Kd refers to the equilibrium constant for the complex coming apart.

The target in assay [1] is Botulinum neurotoxin mosaic BoNT/DC (Clostridium botulinum). Nature of the assay: KinExA, IgG.
For assay [2] the target is unchanged. Nature of the assay: range-finding KinExA, IgG. In general terms: A kinetic exclusion assay measures how much of one partner remains free in solution.
Assay [3] addresses T1, Botulinum neurotoxin serotype C (BoNT/C) (Clostridium botulinum, UniProt P18640 2-1291).
T1 sequence: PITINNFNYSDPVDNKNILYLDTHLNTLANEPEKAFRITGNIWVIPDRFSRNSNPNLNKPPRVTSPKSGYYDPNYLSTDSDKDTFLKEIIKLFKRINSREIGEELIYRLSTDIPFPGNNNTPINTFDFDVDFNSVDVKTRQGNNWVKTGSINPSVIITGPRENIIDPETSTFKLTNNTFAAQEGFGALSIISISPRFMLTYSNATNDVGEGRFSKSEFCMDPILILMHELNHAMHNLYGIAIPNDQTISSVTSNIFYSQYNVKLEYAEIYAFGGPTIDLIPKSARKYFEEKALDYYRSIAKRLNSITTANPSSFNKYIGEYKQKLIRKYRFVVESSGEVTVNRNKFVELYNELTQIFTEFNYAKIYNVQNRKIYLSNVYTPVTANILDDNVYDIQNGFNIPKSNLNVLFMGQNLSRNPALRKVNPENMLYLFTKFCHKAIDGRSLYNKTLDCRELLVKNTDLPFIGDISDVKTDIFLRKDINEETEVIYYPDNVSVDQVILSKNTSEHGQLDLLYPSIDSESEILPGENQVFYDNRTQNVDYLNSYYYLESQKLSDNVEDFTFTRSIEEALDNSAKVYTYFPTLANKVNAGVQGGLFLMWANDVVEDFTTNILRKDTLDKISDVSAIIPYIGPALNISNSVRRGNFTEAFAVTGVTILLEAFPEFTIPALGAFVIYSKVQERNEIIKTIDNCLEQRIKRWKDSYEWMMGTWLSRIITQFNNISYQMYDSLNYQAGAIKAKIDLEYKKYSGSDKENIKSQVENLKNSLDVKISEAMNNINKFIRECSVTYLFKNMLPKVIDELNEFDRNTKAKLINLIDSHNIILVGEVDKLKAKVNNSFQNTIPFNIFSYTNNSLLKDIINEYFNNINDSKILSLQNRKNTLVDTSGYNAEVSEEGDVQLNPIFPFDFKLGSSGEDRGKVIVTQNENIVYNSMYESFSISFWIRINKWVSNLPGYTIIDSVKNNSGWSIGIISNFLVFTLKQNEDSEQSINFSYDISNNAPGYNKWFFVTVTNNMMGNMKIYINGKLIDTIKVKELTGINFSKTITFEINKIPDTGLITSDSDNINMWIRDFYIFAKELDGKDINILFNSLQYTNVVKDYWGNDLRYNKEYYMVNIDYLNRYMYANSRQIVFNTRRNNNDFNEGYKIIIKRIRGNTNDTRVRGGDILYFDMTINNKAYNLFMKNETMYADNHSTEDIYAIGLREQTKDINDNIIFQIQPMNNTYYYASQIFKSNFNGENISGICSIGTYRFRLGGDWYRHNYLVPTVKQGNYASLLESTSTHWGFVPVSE
As to the kind of experiment: range-finding KinExA, IgG.

The target in assay [4] is T1, Botulinum neurotoxin serotype C (BoNT/C). As to the kind of experiment: KinExA, IgG.

B1: 4C10.5 IgG (antibody, V domains shown)
VH: QVQLVQSGGGVVQPGRSLRLSCGASRFTFSGFDMHWVRQAPGKGLEWVARISHDGSMADYADSLRGRFTISRDNSKNTLYLQMNSLRVEDTALYYCAKDRWRSGSYPAFEIWGQGTMVTVSS
VL: EIVLTQSPSFLSAFVGDRITITCRASQGISNRLAWYQQKPGKAPNLLIHPASTLQSGVPSRFSGSGSGTDFTLTISSLQPEDFATYYCQQANSFPLTFGGGTKVEIKR
As to B1, the Kd in assay [1] is 0.987 nM; in assay [2], 0.987 nM; in assay [3], 0.0651 nM; in assay [4], 0.0651 nM.

B2: 4C10.20 IgG (antibody, V domains shown)
VH: QVQLVQSGGGVVQPGRSLRLSCGASRFTFSGFDMHWVRQAPGKGLEWVARISHDGSMADYADSLRGRFTISRDNSKNTLYLQMNSLRVEDTALYYCAKDPWRSGSYPAFEIWGQGTMVTVSS
VL: EIVLTQSPSFLSAFIGDRITITCRASQGIGNRLAWYQQKPGKAPNLLIYPASTLQSGVPSRFSGSGSGTDFTLTISSLQPEDFATYYCQQANSFPLTFGGGTKVEIKR
Consider B2, for which the Kd in assay [1] stood at 0.0166 nM; in assay [2], 0.0166 nM; in assay [3], 0.00102 nM; in assay [4], 0.00102 nM.

B3: 4C10.8 IgG (antibody, V domains shown)
VH: QVQLVQSGGGVVQPGRSLRLSCGASRFTFSGFDMHWVRQAPGKGLEWVARISHDGSMADYADSLRGRFTISRDNSKNTLYLQMNSLRVEDTALYYCAKDPWRSGSYPAFEIWGQGTMVTVSS
VL: EIVLTQSPSFLSAFIGDRITITCRASQGISNRLAWYQQKPGKAPNLLIYPASTLQSGVPSRFSGSGSGTDFTLTISSLQPEDFATYYCQQANSFPLTFGGGTKVEIKR
Turning to B3, the equilibrium dissociation constant (Kd) in assay [1] came to 0.0564 nM; in assay [2], 0.0564 nM; in assay [3] it was 0.0035 nM; in assay [4], 0.0035 nM.

B4: 4C10.23 IgG (antibody, V domains shown)
VH: QVQLVQSGGGVVQPGRSLRLSCGASGFKFSGFDMHWVRQAPGKGLEWVARISHDGSMADYADSLRGRFTISRDNSKNTLYLQMNSLRVEDTALYYCAKDRWRSGSYPAFEIWGQGTMVTVSS
VL: EIVLTQSPSFLSAFVGDRITITCRASKGIGNRLAWYQQKPGKAPNLLIHPASTLQSGVPSRFSGSGSGTDFTLTISSLQPEDFATYYCQQANSFPLTFGGGTKVEIKR
With B4, the Kd was found to be 0.0904 nM in assay [1], 0.0904 nM in assay [2], 0.00665 nM in assay [3] and 0.00665 nM in assay [4].

B5: 4C10.18 IgG (antibody, V domains shown)
VH: QVQLVQSGGGVAQPGRSLRLSCGASRFTFSGFDMHWVRQAPGKGLEWVARISHDGSMADYADSLRGRFTISRDNSKNTLYLQMNSLRVEDTALYYCAKDRWRSGSYPAFEIWGQGTMVTVSS
VL: EIVLTQSPSFLSAFVGDRITITCRASQGIGNRLAWYQQKPGKAPNLLIHPASTLQSGVPSRFSGSGSGTDFTLTISSLQPEDFATYYCQQAHRFPLTFGGGTKVEIKR
With B5, the Kd in assay [1] worked out at 0.109 nM; in assay [2], 0.109 nM; in assay [3] it was 0.0108 nM; in assay [4], 0.0108 nM.

B6: 4C10.22 IgG (antibody, V domains shown)
VH: QVQLVQSGGGVVQPGRSLRLSCGASGFKFSGFDMHWVRQAPGKGLEWVARISHDGSMADYADSLRGRFTISRDNSKNTLYLQMNSLRVEDTALYYCAKDPWRSGSYPAFEIWGQGTMVTVSS
VL: EIVLTQSPSFLSAFIGDRITITCRASQGISNRLAWYQQKPGKAPNLLIYPASTLQSGVPSRFSGSGSGTDFTLTISSLQPEDFATYYCQQANSFPLTFGGGTKVEIKR
With B6, the Kd in assay [1] was 0.0604 nM; in assay [2] it was 0.0604 nM; in assay [3], 0.00192 nM; in assay [4], 0.00192 nM.

B7: 4C10.15 IgG (antibody, V domains shown)
VH: QVQLVQSGGGVVQPGRSLRLSCGASRFTFSGFDMHWVRQAPGKGLEWVARISHDGSMADYADSLRGRFTISRDNSKNTLYLQMNSLRVEDTALYYCAKDRWRSGSYPAFEIWGQGTMVTVSS
VL: EIVLTQSPSFLSAFVGDRITITCRASKGIGNRLAWYQQKPGKAPNLLIHPASTLQSGVPSRFSGSGSGTDFTLTISSLQPEDFATYYCQQANSFPLTFGGGTKVEIKR
For B7, the Kd in assay [1] came out at 0.112 nM; in assay [2], 0.112 nM; in assay [3], 0.0122 nM; in assay [4], 0.0122 nM.

B8: 4C10.17 IgG (antibody, V domains shown)
VH: QVQLVQSGGGVVQPGRSLRLSCGASRFTFSGFDMHWVRQAPGKGLEWVARISHDGSMADYADSLRGRFTISRDNSKNTLYLQMNSLRVEDTALYYCAKDRWRSGSYPAFEIWGQGTMVTVSS
VL: EIVLTQSPSFLSAFVGDRITITCRASQGISNRLAWYQQKPGKAPNLLIHPASSLQSGVPSRFSGSGSGTDFTLTISSLQPEDFATYYCQQANSFPLTFGGGTKVEIKR
In the case of B8, the Kd in assay [1] was 0.766 nM; in assay [2], 0.766 nM; in assay [3], 0.0325 nM; in assay [4], 0.0325 nM.
